Laboratory results: patent publication US20190016812A1 (AbbVie / Abbott, published 2019)
Like-named read-outs stand apart in the source and are kept apart here.

How the values were obtained:
[1] = target: T1, human TNFSF9 (R&D Systems; #2295-4L-025/CF) (human, UniProt P41273 71-254, limits assumed); assay: MSD ELISA: TNFSF9 + 1 ug/mL antibody, binding to coated TNFRSF9
T1 construct: also called TNFSF9 (ligand); TNFSF9 ligand

[2] = target: cynomolgus TNFSF9 (cTNFSF9), full length, overexpressed on HEK293T cells (cynomolgus); assay: cell-based or functional assay
[3] = target: human TNFSF9 (hTNFSF9), full length, overexpressed on HEK293T cells (human, UniProt P41273 1-254); assay: cell-based or functional assay
[4] = target: T2, hTNFSF9-His (monomeric human TNFSF9 extracellular domain with 9x-Histidine tag) (human, UniProt P41273 50-254); assay: SPR (Biacore)
T2 construct: also called hTNFSF9-His protein; monomeric hTNFSF9-His antigen

[5] = target: T3, cynomolgus TNFSF9 (cTNFSF9) protein, soluble recombinant (cynomolgus); assay: SPR (Biacore)
T3 construct: extracellular domain; also called cynomolgus TNFSF9 protein

[6] = target: T1, human TNFSF9 (R&D Systems; …); assay: MSD ELISA: TNFSF9 + 1 ug/mL antibody, binding to coated TNFRSF9; remark: listed apart in the source

T2 sequence (P41273 other isoform, or with tags, fused parts or gaps): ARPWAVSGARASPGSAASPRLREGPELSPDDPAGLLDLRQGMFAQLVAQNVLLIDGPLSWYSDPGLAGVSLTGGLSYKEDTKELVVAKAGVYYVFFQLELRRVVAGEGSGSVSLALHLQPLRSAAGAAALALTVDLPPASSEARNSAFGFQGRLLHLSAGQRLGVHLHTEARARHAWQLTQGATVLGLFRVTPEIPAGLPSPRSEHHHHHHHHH
T1 sequence (P41273 71-254 limits assumed): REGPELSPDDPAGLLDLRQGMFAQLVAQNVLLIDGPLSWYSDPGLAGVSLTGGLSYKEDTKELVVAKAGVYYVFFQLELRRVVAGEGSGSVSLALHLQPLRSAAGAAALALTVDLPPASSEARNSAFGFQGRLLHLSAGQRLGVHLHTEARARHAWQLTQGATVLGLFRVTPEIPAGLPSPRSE

Binder	% inhibition of ligand receptor interaction [1] [%]	% live cells, Fab-saporin killing, 250 pM antibody [2] [%]	% live cells, Fab-saporin killing, 250 pM antibody [3] [%]	Kd [4] [nM]	Kd [5] [nM]	% inhibition of ligand receptor interaction [6] [%]
SC113.133 (antibody, V domains shown) VH: QVQLQQSGAELVRPGSSVKISCKASGYAFSSSWINWVKQRPGQGLEWIGQIYPGDGDTNYNGKFKGKATLTADKSSNTAYLQLNSLTSEDSAVYFCARTPIFAYWGQGTLVTVSA VL: DIQMTQSPSSLSASLGERVSLTCRASQEISGYLTWLQQKPDGTIKRLIYAASILDSGVPKRFSGSRSGSDYSLTISSLESEDFADYYCLQYASYPWTFGGGTKLEIK	66					
SC113.121 (antibody, V domains shown) VH: EVQLQQSGAELVKPGASVNLSCTASGFNIKDYYMHWMKQRPEQGLEWIGRIDPENGETRYAPKFQDKATITADTSSNTAYLQLRSLTSEDTAIYYCGRLDFYFDFWGQGTTLTVSS VL: QIVLSQSPAILSASPGEKVTMTCRASSSVSYMHWYQQKPGSSPKPWIYATSNLASGVPARFSGSGSGTSYSLTISRVEAEDAATYYCQQWSSNPPTFGSGTKLEIK	98					
SC113.150 (antibody, V domains shown) VH: EVQLQQSGAELVKPGASVKLSCTASGFNIKDYYLHWMKQRPEQGLEWIGRIDPENGETRYGPKFQGKATITADASSNTAYLQLRSLTSEDTAIYYCGRLDFYFDYWGQGTTLTVSS VL: QIVLSQSPAILSASPGERVTMTCRASSSVNYIHWYQQKPGSSPKPWIYATSNLASGVPARFSGSGSGTSYSLTISRMEAEDAATYYCQQWSSNPPTFGSGTKLAIK	98					
SC113.167 (antibody, V domains shown) VH: EVQLQQSGAELVKPGASVKLSCTASGFNIKDYYMHWVKQRPEQGLYWIGRIDPEAGETRYAPNFQGKATITADTSSNTAYLQLRSLTSEDTAIYYCARLDFYFDSWGQGTTLTVSS VL: QIVLSQSPAILSASPGEKVTMTCRASSSVSYMHWYQQKPGSSPKPWIYATSNLASGVPGRFSGSGSGTSYSLTISRVEAEDTATYYCQQWFTNPPTFGSGTKLEIK	89					
SC113.61 (antibody, V domains shown, MSD SULFO-TAG NHS Ester label on amines (sites not given), Murine hybridoma antibody, sulfo-tagged for use as detection antibody; The label may sit on either chain; also called SC113.61 detection antibody) VH: EVQLVESGGDLVKPGGSLKLSCAASGFTFSNYGMSWVRQTPDKRLEWVATISNGGISTYYPDSVKGRFTISRDNAKNTLYLQMNSLKSEDTAMYYCVRPGRGYFDYWGQGTTLTVSS VL: DIVMTQAAPSVPVTPGESVSISCRSNKSLLHSDGNTYLYWFLQRPGQSPQLLIYRMSNLASGVPDRFSGSGSGTAFTLRISRVEAEDVGVYYCMQHLEYPWTFGGGTKLEIK	48	29	23	6	11	
SC113.70 (antibody, mouse IgG2b, V domains shown, mouse IgG2b) VH: DVQLQESGPDLVKPSQSLSLTCTVTGYSITSGYTWHWIRQFPGNKLEWMGYIIYSGGTNYNPSLKSRISITRDTSKNQFFLQLNSVTPEDTATYYCASLLRPLDYWGQGTTLTVSS VL: DIVMTQAAPSVPVTPGESVSISCRSSKSLLHSNGDTFLYWFLQRPGQSPQLLIYRMSNLASGVPDRFSGSGSGTAFTLRISRVEAEDVGVYYCMQHLEYPFTFGAGTKLELK		101	95.1	11	81	46
huSC113.57 (antibody, V domains shown, also called hSC113.57 (humanized SC113.57)) VH: QVTLKESGPVLVKPTETLTLTCTVSGFSLSTYGVHWIRQPPGKALEWLAVIWSGGTTDDNAAFISRVTISKDNSKSQVVLTMTNMDPVDTATYYCARNSYYGNLHYYTMDYWGQGTTVTVSS VL: EIVLTQSPATLSLSPGERATLSCRASESVDSYGISFLNWYQQKPGQAPRLLIYAASNQGSGIPARFSGSGSGTDFTLTISSLEPEDFAVYYCQQSKEVPWTFGGGTKVEIK						-38
SC113.51 (antibody, mouse IgG2a, V domains shown, mouse IgG2a) VH: QVQLKESGPDLVAPSQSLSIICTVSGFSLTSYGVHWVRQSPGKGLEWLGVIWAGGLTNYNSALMSRLSISKDNSKSQVFLKMNSLQTDDTAMYYCVREKDYRYSYYFDYWGQGTTLTVSS VL: DIVMSQSPSSLAVSVGEKVTLSCKSSLSLLYSSNQENYLAWYQQKPGQSPKLLIYWASTRESGVPDRFTGSGSGTDFTLTISSVKAEDLAVYYCQQYYSYPRTFGGGTKLEIK	99	108	15.5	3	28	
SC113.219 (antibody, V domains shown) VH: QVQLKQSGAELVRPGASVKLSCRASGYTFTDFYINWVKQRPGQGLEWIARIYPGSGNTHYNENFKGKATLTAEKSSSTAYMQLSSLTSEDSAVYFCAREVWDAMDHWGQGTSVTVSS VL: SIVMTQSPKSMSISVGERVTLSCKASENVGTYVSWYQQKPEQSPKLLIYGASNRYTGVPDRFTGSGSSAEFTLTISSVQAEDLADYYCGQSSSFPIFTFGTGAKLEIK						-37
SC113.201 (antibody, V domains shown) VH: QVQLKQSGPSLVQPSQSLSITCTVSGFSLTNYGVHWVRQSPGKGLEWLGVIWRGGGTDSNAAFMSRLTITKDNSKSQVFFKMSSLQADDTAIYYCAKNTRYDARGYYAMDYWGQGTSVTVSS VL: not shown						-66
SC113.57 (antibody, V domains shown, Murine hybridoma antibody with kappa light chain; also called SC113.57 capture antibody) VH: QVQLKQSGPGLVPPSQSLSISCTVSGFSLTTYGVHWVRQSPGKGLEWLGVIWSGGTTDDNAAFISRVSITKDNSKSQVFFKMNSLQADDTAIYYCAKNSYYGNLHYYTMDYWGQGTSVTVSS VL: not shown		9.3	11.6	5	4	-35
SC113.153 (antibody, V domains shown, Murine hybridoma antibody) VH: QVQLKQSGPGLVQPSQSLSITCTVSGFSLTSYGVHWVRQSPGKGLEWLGVIWSGGSTDDNAAFISRLSISKDNSKSQVFFKMNSLQADDTAIYYCARNYYYDGRYYAMDYWGQGTSVTVSS VL: DIVLTQSPASLAVSLGQRATISCRASESVEYYGTSLMQWYQQKPGQPPKLLIYVASNVESGVPVRFSGSGSGTDFSLNIHPVEEDDIAMYFCQQSRKVPWTFGGGTKLEIK						-84
SC113.148 (antibody, V domains shown) VH: QVQLKQSGPGPVQPSQSLSITCTVSGFSLTSYGVHWVRQSPGKGLEWLGVIWSGGSTDDNAAFISRMSITKDNSKSQVFLKMNSLQADDTAKYYCARNYYYEGRYYVMDYWGQGTSVIVSS VL: DIVLTQSPVSLAVSLGQRATISCRASESVEYYGTSLMQWYQQKPGQPPKLLIYAASNVESGVPARFSGSGSGTDFSLNIHPVEEDDIAMYFCQQSRKVPWTFGGGTKLEIK						-63
